Source: paper PMC3905896 (Nucleic Acids Research, 2013)

T1: PtxS (assayed together with PtxR at Pgad) (Pseudomonas aeruginosa, UniProt G3XD97)
T1 sequence (G3XD97 1-340): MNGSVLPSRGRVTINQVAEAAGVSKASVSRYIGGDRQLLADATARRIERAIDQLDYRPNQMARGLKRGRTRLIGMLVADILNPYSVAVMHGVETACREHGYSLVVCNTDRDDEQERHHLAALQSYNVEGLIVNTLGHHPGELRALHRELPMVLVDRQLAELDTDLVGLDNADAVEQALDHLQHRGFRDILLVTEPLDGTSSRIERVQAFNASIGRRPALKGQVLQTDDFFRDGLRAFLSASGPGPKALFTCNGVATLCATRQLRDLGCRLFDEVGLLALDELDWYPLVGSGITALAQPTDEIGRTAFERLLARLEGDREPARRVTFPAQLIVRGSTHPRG

T2: PtxR (Pseudomonas aeruginosa, UniProt P72131 1-312)
T2 sequence (looked up): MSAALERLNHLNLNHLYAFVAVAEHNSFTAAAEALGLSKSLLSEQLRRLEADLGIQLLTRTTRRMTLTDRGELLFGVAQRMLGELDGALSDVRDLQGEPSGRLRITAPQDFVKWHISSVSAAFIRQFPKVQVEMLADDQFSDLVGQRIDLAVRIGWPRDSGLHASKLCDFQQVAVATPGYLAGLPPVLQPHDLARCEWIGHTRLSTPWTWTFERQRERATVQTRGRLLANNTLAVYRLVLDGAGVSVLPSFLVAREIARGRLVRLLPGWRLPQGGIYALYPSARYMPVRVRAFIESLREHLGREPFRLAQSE

B1: PtxS (natural protein, Pseudomonas aeruginosa, UniProt G3XD97 1-340, looked up)
chain: T1 sequence (G3XD97 1-340)

How the values were obtained:
[1] = molecular target: T1, PtxS (assayed together with PtxR at Pgad); type: biochemical
PtxR = molecular target: T2, PtxR; assay: ITC

Molecule	EC50 [1] [µM]	KD of the first binding event (PtxR) [µM]	KD of the second binding event (PtxR) [µM]	dH of the first binding event (PtxR) [kJ/mol]	dH of the second binding event (PtxR) [kJ/mol]
O=C(O)C(=O)[C@@H](O)[C@H](O)[C@H](O)CO [2-ketogluconate]	78	–	–	–	–
B1	–	0.012 ± 0.002	0.099 ± 0.008	-114 ± 2.93	-54.4 ± 3.35
